Where only a bound is given, the exact number is not on record here.

This assay has as its target Recombinant SARS-CoV-2 RBD (residues R319–F541) (SARS-CoV-2, UniProt P0DTC2). As to the kind of experiment: SPR. Particulars: both partners purified.

B1: REGN10987 (class III) (antibody, V domains shown)
VH: QVQLVESGGGVVQPGRSLRLSCAASGFTFSNYAMYWVRQAPGKGLEWVAVISYDGSNKYYADSVKGRFTISRDNSKNTLYLQMNSLRTEDTAVYYCASGSDYGDYLLVYWGQGTLVTVSS
VL: QSALTQPASVSGSPGQSITISCTGTSSDVGGYNYVSWYQQHPGKAPKLMIYDVSKRPSGVSNRFSGSKSGNTASLTISGLQSEDEADYYCNSLTSISTWVFGGGTKLTVL
B1: the Kd was less than 0.01 nM.

Broadly, the Kd is the concentration at which binding is half-saturated.

The record behind these values is article PMC8710476 (Frontiers in Immunology, 2021).
